The assay addresses T1, CD47 on NUGC-4 cells / hCLDN18.2-NUGC-4 cells (human, UniProt Q08722 19-323).
T1 construct: whole, on cells; also called 内源CD47; 人CD47
Briefly: flow cytometry, blocking of SIRPα-mFc binding to hCLDN18.2-NUGC-4 cells.

T1 sequence (Q08722 19-323): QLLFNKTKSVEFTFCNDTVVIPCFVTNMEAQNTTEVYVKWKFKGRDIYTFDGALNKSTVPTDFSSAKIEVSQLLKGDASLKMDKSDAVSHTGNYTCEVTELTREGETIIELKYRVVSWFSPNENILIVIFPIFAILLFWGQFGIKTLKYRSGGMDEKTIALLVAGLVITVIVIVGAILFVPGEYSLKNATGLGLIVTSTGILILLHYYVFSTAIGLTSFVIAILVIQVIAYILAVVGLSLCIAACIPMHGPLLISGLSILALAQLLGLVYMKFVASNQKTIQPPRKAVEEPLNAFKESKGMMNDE

B1: 抗体1F8 (WO2018075857A1中1F8抗体) (antibody, V domains shown)
VH: KVQLVESGGGLVKPGGSLRLSCAASGFTFSNAWMNWVRQAPGKGLEWVGRIKRKTDGETTDYAAPVKGRFSISRDDSKNTLYLQMNSLKTEDTAVYYCAGSNRAFDIWGQGTMVTVSA
VL: DIVMTQSPDSLAVSLGERATINCKSSQSVLYSSNNRNYLAWYQQKPGQPPKLLINQASTRASGVPDRFSGSGSGTEFTLIISSLHAEDVAIYYCQQYYTPPLAFGGGTKLEIK
Molecule B1 gave an IC50 of 1.98 µg/mL.

For orientation: IC50 means the concentration at which inhibition is half-maximal. A high value points to a need for much substance.

The values above are taken from CN117180420A (DRAGONBOAT BIOPHARMACEUTICAL SHANGHAI CO LTD, dated 2023).
